Experimental data taken from US20240010684A1 (Bayer, published 2024).
Where two headings read alike, the source gives them in different places. Bridges are numbered along the chain shown (N, C = ends). Where no end group is shown, it is not given here. [ ]: non-standard residue; d: D form. Oic = O=C(O)[C@@H]1C[C@@H]2CCCC[C@@H]2N1; tBuAla = CC(C)(C)C[C@H](N)C(=O)O; Pen = CC(C)(S)[C@H](N)C(=O)O; 4Amb = NCc1ccc(C(=O)O)cc1; Dap = NC[C@H](N)C(=O)O; Ahx = NCCCCCC(=O)O; Sar = CNCC(=O)O

T1: recombinant human MASP1 (amino acids 297-699, C-terminal His Tag) (human, UniProt P48740 297-699)
T1 sequence: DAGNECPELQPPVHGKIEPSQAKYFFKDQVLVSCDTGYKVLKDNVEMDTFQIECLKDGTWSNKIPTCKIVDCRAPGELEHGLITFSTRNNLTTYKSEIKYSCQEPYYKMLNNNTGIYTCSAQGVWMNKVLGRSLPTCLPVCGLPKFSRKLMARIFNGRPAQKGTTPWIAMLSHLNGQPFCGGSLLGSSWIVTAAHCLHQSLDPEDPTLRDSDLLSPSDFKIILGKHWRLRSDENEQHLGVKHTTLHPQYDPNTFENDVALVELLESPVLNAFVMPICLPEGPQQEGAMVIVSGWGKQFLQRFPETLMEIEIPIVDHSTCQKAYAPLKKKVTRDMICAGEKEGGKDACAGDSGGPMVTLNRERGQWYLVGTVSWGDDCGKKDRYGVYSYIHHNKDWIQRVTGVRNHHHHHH

T2: recombinant rat MASP1 (amino acids 302-704, C-terminal His Tag) (rat, UniProt Q8CHN8 302-704)
T2 sequence: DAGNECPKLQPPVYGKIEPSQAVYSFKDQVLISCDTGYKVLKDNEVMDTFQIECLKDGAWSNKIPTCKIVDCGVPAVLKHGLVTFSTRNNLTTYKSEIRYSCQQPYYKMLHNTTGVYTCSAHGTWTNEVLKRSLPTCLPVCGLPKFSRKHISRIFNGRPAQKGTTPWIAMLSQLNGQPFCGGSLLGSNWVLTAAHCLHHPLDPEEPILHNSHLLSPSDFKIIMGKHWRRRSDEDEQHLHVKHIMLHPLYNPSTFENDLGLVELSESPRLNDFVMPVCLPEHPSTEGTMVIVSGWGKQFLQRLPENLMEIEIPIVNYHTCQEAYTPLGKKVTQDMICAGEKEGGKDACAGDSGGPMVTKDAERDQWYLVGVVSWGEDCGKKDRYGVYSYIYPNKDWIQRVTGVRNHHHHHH


Experiments:
Test in all cases: cell-based or functional assay
[1] = target: T1, recombinant human MASP1 (amino acids …)
[2] = target: T3, recombinant human MASP2 (amino acids 297-686, C-terminal His Tag) (human, UniProt O00187 297-686)
T3 sequence (O00187 other isoform, or with tags, fused parts or gaps limits assumed): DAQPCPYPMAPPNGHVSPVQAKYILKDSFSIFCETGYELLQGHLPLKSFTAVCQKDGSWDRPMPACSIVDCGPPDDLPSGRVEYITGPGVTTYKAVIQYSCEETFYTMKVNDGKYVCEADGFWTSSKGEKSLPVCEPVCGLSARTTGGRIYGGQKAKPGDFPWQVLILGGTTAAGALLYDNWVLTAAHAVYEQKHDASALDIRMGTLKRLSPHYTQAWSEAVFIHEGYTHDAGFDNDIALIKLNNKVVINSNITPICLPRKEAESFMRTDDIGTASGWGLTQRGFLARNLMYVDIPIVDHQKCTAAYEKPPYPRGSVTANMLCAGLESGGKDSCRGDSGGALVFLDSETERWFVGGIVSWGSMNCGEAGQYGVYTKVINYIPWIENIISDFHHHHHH

[3] = target: T2, recombinant rat MASP1 (amino acids …)
[4] = target: T4, recombinant rat MASP2 (amino acids 296-685, C-terminal His Tag) (rat, UniProt Q9JJS8 296-685)
T4 sequence (Q9JJS8 other isoform, or with tags, fused parts or gaps limits assumed): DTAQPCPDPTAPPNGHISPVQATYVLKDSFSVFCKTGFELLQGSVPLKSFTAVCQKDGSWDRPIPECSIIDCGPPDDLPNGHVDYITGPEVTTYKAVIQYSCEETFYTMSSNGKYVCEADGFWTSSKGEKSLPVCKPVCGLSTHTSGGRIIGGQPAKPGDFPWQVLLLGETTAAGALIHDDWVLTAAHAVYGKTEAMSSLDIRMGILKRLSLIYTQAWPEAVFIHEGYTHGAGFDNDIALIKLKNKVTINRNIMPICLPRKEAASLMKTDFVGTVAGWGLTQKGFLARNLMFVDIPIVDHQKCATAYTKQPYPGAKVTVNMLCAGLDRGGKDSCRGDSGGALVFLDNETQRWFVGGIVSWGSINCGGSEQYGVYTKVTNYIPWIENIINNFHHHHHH

[5] = target: T1, recombinant human MASP1 (amino acids …); remark: listed apart in the source
[6] = target: T3, recombinant human MASP2 (amino acids …); remark: listed apart in the source
[7] = target: T2, recombinant rat MASP1 (amino acids …); remark: listed apart in the source
[8] = target: T4, recombinant rat MASP2 (amino acids …); remark: listed apart in the source

| Binder | human MASP1 IC50 [1] | human MASP2 IC50 [2] | rat MASP1 IC50 [3] | rat MASP2 IC50 [4] | human MASP1 IC50 [5] | human MASP2 IC50 [6] | rat MASP1 IC50 [7] | rat MASP2 IC50 [8] |
| --- | --- | --- | --- | --- | --- | --- | --- | --- |
| cyclo(AGGICSRS[tBuAla]PPI[Pen]IP[dD]) (disulfide 5-13; also: TFA salt) [Example 39: A**GGIC+SRS-((tBu)A)-PPI-(Pen)+-IPd**] | 6 nM | 75 nM | 44 nM | 8 nM | – | – | – | – |
| cyclo(GICSRSLPPICIPD) (disulfide 3-11; SMILES CC[C@H](C)[C@@H]1NC(=O)CNC(=O)[C@H](CC(=O)O)NC(=O)[C@@H]2CCCN2C(=O)[C@H]([C@@H](C)CC)NC(=O)[C@@H]2CSSC[C@H](NC1=O)C(=O)N[C@@H](CO)C(=O)N[C@@H](CCCNC(=N)N)C(=O)N[C@@H](CO)C(=O)N[C@@H](CC(C)C)C(=O)N1CCC[C@H]1C(=O)N1CCC[C@H]1C(=O)N[C@@H]([C@@H](C)CC)C(=O)N2) [Bicyclic SFMI-1: G**IC+SRSLPPIC+IPD**] | – | – | – | – | 145 nM | 895 nM | 1000 nM | 232 nM |
| cyclo([Ahx]GICSRS[tBuAla]PPI[Pen]IPD) (disulfide 4-12; also: TFA salt) [Example 28: (Ahx)**-GIC+SRS-((tBu)A)-PPI-(Pen)+-IPD**] | 19 nM | 29 nM | 79 nM | 16 nM | – | – | – | – |
| cyclo([Ahx]AICSRS[tBuAla]PPI[Pen]IP) (disulfide 4-12; also: TFA salt) [Example 53: (Ahx)**-AIC+SRS-((tBu)A)-PPI-(Pen)+-IP**] | 6.75 nM | 83.5 nM | 96 nM | 19 nM | – | – | – | – |
| cyclo([Ahx][Sar]ICSRS[tBuAla]PPI[Pen]IP) (disulfide 4-12; also: TFA salt) [Example 54: (Ahx)**-((N-Me)G)-IC+SRS-((tBu)A)-PPI-(Pen)+-IP**] | 8.5 nM | 33 nM | 180 nM | 18 nM | – | – | – | – |
| cyclo([Ahx]ICSRS[tBuAla]PPI[Pen]I) (disulfide 3-11; also: TFA salt) [Example 52: (Ahx)**-IC+SRS-((tBu)A)-PPI-(Pen)+-I**] | 7.9 nM | 9.3 nM | 79 nM | 11.6 nM | – | – | – | – |
| cyclo(GYCSRSYPPVCIPD) (disulfide 3-11; SMILES CC[C@H](C)[C@@H]1NC(=O)[C@@H]2CSSC[C@H](NC(=O)[C@H](Cc3ccc(O)cc3)NC(=O)CNC(=O)[C@H](CC(=O)O)NC(=O)[C@@H]3CCCN3C1=O)C(=O)N[C@@H](CO)C(=O)N[C@@H](CCCNC(=N)N)C(=O)N[C@@H](CO)C(=O)N[C@@H](Cc1ccc(O)cc1)C(=O)N1CCC[C@H]1C(=O)N1CCC[C@H]1C(=O)N[C@@H](C(C)C)C(=O)N2) [Bicyclic SFMI-2: G**YC+SRSYPPVC+IPD**] | – | – | – | – | 8130 nM | – | 1000 nM | 126 nM |

Further lines, results first:

| human MASP1 IC50 [1] | human MASP2 IC50 [2] | rat MASP1 IC50 [3] | rat MASP2 IC50 [4] | human MASP1 IC50 [5] | human MASP2 IC50 [6] | rat MASP1 IC50 [7] | rat MASP2 IC50 [8] | Binder |
| --- | --- | --- | --- | --- | --- | --- | --- | --- |
| 9 nM | 650 nM | 110 nM | 46 nM | – | – | – | – | cyclo(ICSRS[tBuAla]PPI[Pen]IPP) (disulfide 2-10; also: TFA salt) [Example 58: I**C+SRS-((tBu)A)-PPI-(Pen)+-IPP**] |
| 5.7 nM | 91 nM | 290 nM | 64 nM | – | – | – | – | cyclo([Dap][Dap]ICSRSLP[Oic]I[Pen]IP) (disulfide 4-12; also: TFA salt) [Example 89: (Dap)**-(Dap)-IC+SRSLP-(Oic)-I-(Pen)+-IP**] |
| – | – | – | – | 4800 nM | 5000 nM | 1000 nM | 1000 nM | cyclo(PFCIPPISKTCRGD) (disulfide 3-11; SMILES CC[C@H](C)[C@@H]1NC(=O)[C@@H]2CCCN2C(=O)[C@@H]2CCCN2C(=O)[C@H]([C@@H](C)CC)NC(=O)[C@@H]2CSSC[C@H](NC(=O)[C@H]([C@@H](C)O)NC(=O)[C@H](CCCCN)NC(=O)[C@H](CO)NC1=O)C(=O)N[C@@H](CCCNC(=N)N)C(=O)NCC(=O)N[C@@H](CC(=O)O)C(=O)N1CCC[C@H]1C(=O)N[C@@H](Cc1ccccc1)C(=O)N2) [Reference peptide 12: P**FC+IPPISKTC+RGD**] |
| 6.3 nM | 48 nM | 85 nM | 14 nM | – | – | – | – | cyclo([Ahx]AICSRS[tBuAla]PPI[Pen]I) (disulfide 4-12; also: TFA salt) [Example 72: (Ahx)**-AIC+SRS-((tBu)A)-PPI-(Pen)+-I**] |
| 8.4 nM | 77 nM | 170 nM | 41 nM | – | – | – | – | cyclo(AGGICSRSLP[Oic]I[Pen]IPD) (disulfide 5-13; also: TFA salt) [Example 92: A**GGIC+SRSLP-(Oic)-I-(Pen)+-IPD**] |
| 6.1 nM | 2.57 nM | 30.8 nM | 2.97 nM | – | – | – | – | cyclo([Ahx][4Amb]ICSRS[tBuAla]PPI[Pen]IP) (disulfide 4-12; also: TFA salt) [Example 68: (Ahx)**-(4-(Aminomethyl)benzoic acid)-IC+SRS-((tBu)A)-PPI-(Pen)+-IP**] |
| 7.2 nM | 14 nM | 27 nM | 1.4 nM | – | – | – | – | [Ahx]ICSRSLP[Oic]I[Pen]IPE-NH2 (disulfide 3-11; lactam N-14; also: TFA salt) [Example 75: (Ahx)**-IC+SRSLP-(Oic)-I-(Pen)+-IPE++-NH2] |
| 35 nM | 45 nM | 410 nM | 68 nM | – | – | – | – | EGICSRSLP[Oic]I[Pen]IPD[Dap]-NH2 (lactam 1-16; disulfide 4-12; also: TFA salt) [Example 93: E++GIC+SRSLP-(Oic)-I-(Pen)+-IPD-(Dap)++-NH2] |
